Target: T1, Recombinant p47-GST (human, UniProt Q9UNZ2 1-370)
T1 construct: p47 (NSFL1C), recombinant, bought (Novus H00055968-P01); source: bought: Novus, H00055968-P01, purified from wheat germ
T1 sequence (looked up): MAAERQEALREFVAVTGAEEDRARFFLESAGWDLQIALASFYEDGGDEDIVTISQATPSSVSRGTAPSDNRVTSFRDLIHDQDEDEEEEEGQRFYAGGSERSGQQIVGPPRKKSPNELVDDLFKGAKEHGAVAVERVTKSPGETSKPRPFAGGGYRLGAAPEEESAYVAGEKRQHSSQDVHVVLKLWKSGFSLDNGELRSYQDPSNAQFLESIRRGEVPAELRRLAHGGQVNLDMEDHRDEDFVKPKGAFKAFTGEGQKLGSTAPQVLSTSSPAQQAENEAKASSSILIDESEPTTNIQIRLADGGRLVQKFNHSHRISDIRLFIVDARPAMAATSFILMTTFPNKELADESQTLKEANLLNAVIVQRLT
Experiment: pull-down; In vitro binding assay: 1 μg p47-GST and 2 μg p37 (WT or SHP), with or without 2 μg purified VCP, 1 hour at 4°C, then glutathione beads 1 hour; 25 mM Hepes pH 7.4, 150 mM NaCl, 0.01% Triton X-100, 5% glycerol
Conditions: both partners purified

B1: purified WT p37 (natural protein, human, UniProt Q14CS0 1-331, looked up)
chain: MAEGGGPEPGEQERRSSGPRPPSARDLQLALAELYEDEVKCKSSKSNRPKATVFKSPRTPPQRFYSSEHEYSGLNIVRPSTGKIVNELFKEAREHGAVPLNEATRASGDDKSKSFTGGGYRLGSSFCKRSEYIYGENQLQDVQILLKLWSNGFSLDDGELRPYNEPTNAQFLESVKRGEIPLELQRLVHGGQVNLDMEDHQDQEYIKPRLRFKAFSGEGQKLGSLTPEIVSTPSSPEEEDKSILNAVVLIDDSVPTTKIQIRLADGSRLIQRFNSTHRILDVRNFIVQSRPEFAALDFILVTSFPNKELTDESLTLLEADILNTVLLQQLK
notes: p37 (UBXN2B), human, wild type, from pGEX-6P-1 p37; also called p37 WT; p37WT; source: E. coli Rosetta 2 BL21 (DE3), purified (glutathione sepharose, eluted by PreScission cleavage)
Question: Does B1 bind?
Answer: Result: binds
